Measured values from paper PMC10607449, “Structural Characterization of an N-Acetyl Sugar Amidotransferase Involved in the Lipopolysaccharide Biosynthesis in Bacteria” (International Journal of Molecular Sciences, 2023).

Target: the molecule itself
Assay: SEC

B1: N-acetyl sugar amidotransferase from Legionella pneumophila (enzyme)
chain: MSNARIGIDMSKIYAPKSIDLSSFQLPDEKLQTKYGLPHKVEFCKSCVISNQRPNSAVEYEHKKESKKHTIHFDDEGICDACRVAERKKSTINWEERDRQLRELCDRFRSKDGSYDCVVPGSGGKDSFYAAHILKYKYGMNPLTVTWAPHMYTPWGWRNFQSWIHAGFDNHLFTPNGRVHRLLTRLAVENLFHPFQPFMIGQKAYAPKMALLHKIKLVVYGENEAEYGNPIGDTESAKRDWKYFTADDKSKIFLGGTSVQELKSDFGLNDNDLDAYLPADPQQIEEQQVEVHYLGYYLKWHPQSCYYYSVEHGGFEASPERTPGTYSKYNSIDDKIDDFHYYTTLTKFGIGRATYDASQEIRSGDITREEGVALVKRFDQEFPERFAEEIFKYLSINLKEFPIASQMFEQPIMDRAYFMALADTFRSPHLWKKDGEQWKLRHQVTNLEKTKAEYLDLETV
notes: also called LpNASAT; NASAT
stoichiometry N: 2
